The target of assay [1] is Calmodulin. Kind of assay: BSI; molar refractometry; row repeated for a second PDB structure used in the model.
The target in assay [2] is Calmodulin. The assay can be described thus: BSI, calmodulin-calcineurin assay, free solution.
Assay [3] concerns the target Calmodulin. The assay can be described thus: BSI, free-solution binding signal; row repeated for a second PDB structure used in the model.
Assay [4] addresses Calmodulin. The assay can be described thus: BSI; molar refractometry from the experimental phase shift at Bmax.
The target in assay [5] is Calmodulin. The assay can be described thus: BSI, free-solution binding signal.

For Calcineurin (enzyme), the Experimental Chi (RIU/M) with Calmodulin [1] and with Calmodulin [4] was 46100 RIU/M throughout. For the same substance, in the assay with Calmodulin [2], the FreeSRF (binding) signal ΔRIU came to 0.000441 RIU. Besides, the BSI ΔRIU in the assay with Calmodulin [3] and with Calmodulin [5] was 0.00049 RIU in each case.

The values are drawn from US20200209227A1.
